This experiment addresses T1, α-catenin (cleaved from GST–α-catenin), P35221.
T1 chain: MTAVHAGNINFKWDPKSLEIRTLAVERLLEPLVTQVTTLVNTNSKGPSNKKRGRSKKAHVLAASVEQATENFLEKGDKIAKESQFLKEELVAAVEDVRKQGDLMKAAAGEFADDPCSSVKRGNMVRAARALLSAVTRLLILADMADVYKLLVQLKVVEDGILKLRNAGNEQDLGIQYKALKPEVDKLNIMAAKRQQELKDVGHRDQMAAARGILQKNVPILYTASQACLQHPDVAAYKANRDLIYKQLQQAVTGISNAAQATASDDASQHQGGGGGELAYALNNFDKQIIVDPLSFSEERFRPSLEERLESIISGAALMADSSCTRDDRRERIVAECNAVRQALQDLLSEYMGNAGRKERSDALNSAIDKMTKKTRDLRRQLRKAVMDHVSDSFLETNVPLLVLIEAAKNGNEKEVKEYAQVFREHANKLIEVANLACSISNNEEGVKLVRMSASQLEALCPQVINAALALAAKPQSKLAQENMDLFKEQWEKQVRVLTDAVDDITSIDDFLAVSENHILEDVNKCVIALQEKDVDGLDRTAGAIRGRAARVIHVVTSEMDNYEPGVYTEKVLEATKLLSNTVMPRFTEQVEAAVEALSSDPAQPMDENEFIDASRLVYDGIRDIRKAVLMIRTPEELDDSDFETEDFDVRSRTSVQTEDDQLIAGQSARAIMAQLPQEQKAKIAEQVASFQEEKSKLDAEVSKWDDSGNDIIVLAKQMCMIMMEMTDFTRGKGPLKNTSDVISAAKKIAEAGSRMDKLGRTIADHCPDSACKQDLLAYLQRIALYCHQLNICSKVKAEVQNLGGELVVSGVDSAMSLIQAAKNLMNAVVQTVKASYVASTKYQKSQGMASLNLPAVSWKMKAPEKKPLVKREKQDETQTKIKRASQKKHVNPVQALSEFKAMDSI
Description: GST pull-down (in vitro reconstitution of cadherin complex), blot quantification. The note with it: chain shown with the change;; parent: est. 1.0; read off a plot.

B1: GST–β-catenin WT, P35222 S675D (protein)
chain: MATQADLMELDMAMEPDRKAAVSHWQQQSYLDSGIHSGATTTAPSLSGKGNPEEEDVDTSQVLYEWEQGFSQSFTQEQVADIDGQYAMTRAQRVRAAMFPETLDEGMQIPSTQFDAAHPTNVQRLAEPSQMLKHAVVNLINYQDDAELATRAIPELTKLLNDEDQVVVNKAAVMVHQLSKKEASRHAIMRSPQMVSAIVRTMQNTNDVETARCTAGTLHNLSHHREGLLAIFKSGGIPALVKMLGSPVDSVLFYAITTLHNLLLHQEGAKMAVRLAGGLQKMVALLNKTNVKFLAITTDCLQILAYGNQESKLIILASGGPQALVNIMRTYTYEKLLWTTSRVLKVLSVCSSNKPAIVEAGGMQALGLHLTDPSQRLVQNCLWTLRNLSDAATKQEGMEGLLGTLVQLLGSDDINVVTCAAGILSNLTCNNYKNKMMVCQVGGIEALVRTVLRAGDREDITEPAICALRHLTSRHQEAEMAQNAVRLHYGLPVVVKLLHPPSHWPLIKATVGLIRNLALCPANHAPLREQGAIPRLVQLLVRAHQDTQRRTSMGGTQQQFVEGVRMEEIVEGCTGALHILARDVHNRIVIRGLNTIPLFVQLLYSPIENIQRVAAGVLCELAQDKEAAEAIEAEGATAPLTELLHSRNEGVATYAAAVLFRMSEDKPQDYKKRLDVELTSSLFRTEPMAWNETADLGLDIGAQGEPLGYRQDDPSYRSFHSGGYGQDALGMDPMMEHEMGGHHPGADYPVDGLPDLGHAQDLMDGLPPGDSNQLAWFDTDL
Consider B1, for which the ratio to parent was determined as 1.1 fold change.

(Values after publication PMC8091128.)
